B2: Orc2 (natural protein)
chain: MLNGEDFVEHNDILSSPAKSRNVTPKRVDPHGERQLRRIHSSKKNLLERISLVGNERKNTSPDPALKPKTPSKAPRKRGRPRKIQEELTDRIKKDEKDTISSKKKRKLDKDTSGNVNEESKTSNNKQVMEKTGIKEKREREKIQVATTTYEDNVTPQTDDNFVSNSPEPPEPATPSKKSLTTNHDFTSPLKQIIMNNLKEYKDSTSPGKLTLSRNFTPTPVPKNKKLYQTSETKSASSFLDTFEGYFDQRKIVRTNAKSRHTMSMAPDVTREEFSLVSNFFNENFQKRPRQKLFEIQKKMFPQYWFELTQGFSLLFYGVGSKRNFLEEFAIDYLSPKIAYSQLAYENELQQNKPVNSIPCLILNGYNPSCNYRDVFKEITDLLVPAELTRSETKYWGNHVILQIQKMIDFYKNQPLDIKLILVVHNLDGPSIRKNTFQTMLSFLSVIRQIAIVASTDHIYAPLLWDNMKAQNYNFVFHDISNFEPSTVESTFQDVMKMGKSDTSSGAEGAKYVLQSLTVNSKKMYKLLIETQMQNMGNLSANTGPKRGTQRTGVELKLFNHLCAADFIASNEIALRSMLREFIEHKMANITKNNSGMEIIWVPYTYAELEKLLKTVLNTL

Tests used:
[1] = biological target: T1, Orc1 (S. cerevisiae, UniProt P54784 1-914); assay: cryo-EM structure
T1 sequence: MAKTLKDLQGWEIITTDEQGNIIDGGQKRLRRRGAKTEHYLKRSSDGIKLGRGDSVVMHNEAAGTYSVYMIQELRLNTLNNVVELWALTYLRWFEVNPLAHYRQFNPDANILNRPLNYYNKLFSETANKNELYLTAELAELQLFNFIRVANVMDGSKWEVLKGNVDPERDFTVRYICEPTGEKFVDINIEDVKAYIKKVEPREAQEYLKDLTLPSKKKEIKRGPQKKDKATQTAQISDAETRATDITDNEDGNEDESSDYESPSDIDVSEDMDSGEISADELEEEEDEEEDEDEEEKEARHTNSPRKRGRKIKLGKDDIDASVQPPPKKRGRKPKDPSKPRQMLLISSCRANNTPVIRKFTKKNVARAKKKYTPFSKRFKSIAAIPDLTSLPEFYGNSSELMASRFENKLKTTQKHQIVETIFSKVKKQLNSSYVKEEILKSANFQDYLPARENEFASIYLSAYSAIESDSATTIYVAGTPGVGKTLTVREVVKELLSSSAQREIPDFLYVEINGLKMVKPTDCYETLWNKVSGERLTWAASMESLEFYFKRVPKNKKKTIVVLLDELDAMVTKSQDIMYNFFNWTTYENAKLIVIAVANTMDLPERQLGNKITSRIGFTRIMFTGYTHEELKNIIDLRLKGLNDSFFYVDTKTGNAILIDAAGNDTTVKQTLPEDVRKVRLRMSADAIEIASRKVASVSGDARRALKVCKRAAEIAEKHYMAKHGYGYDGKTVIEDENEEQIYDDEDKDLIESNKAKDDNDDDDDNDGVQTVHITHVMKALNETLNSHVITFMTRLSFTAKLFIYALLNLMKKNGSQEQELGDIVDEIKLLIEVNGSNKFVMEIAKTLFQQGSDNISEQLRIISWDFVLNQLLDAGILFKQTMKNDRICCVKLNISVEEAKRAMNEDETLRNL

[2] = biological target: T2, Mcm7 (S. cerevisiae, UniProt P38132 1-845); assay: cryo-EM structure
T2 sequence: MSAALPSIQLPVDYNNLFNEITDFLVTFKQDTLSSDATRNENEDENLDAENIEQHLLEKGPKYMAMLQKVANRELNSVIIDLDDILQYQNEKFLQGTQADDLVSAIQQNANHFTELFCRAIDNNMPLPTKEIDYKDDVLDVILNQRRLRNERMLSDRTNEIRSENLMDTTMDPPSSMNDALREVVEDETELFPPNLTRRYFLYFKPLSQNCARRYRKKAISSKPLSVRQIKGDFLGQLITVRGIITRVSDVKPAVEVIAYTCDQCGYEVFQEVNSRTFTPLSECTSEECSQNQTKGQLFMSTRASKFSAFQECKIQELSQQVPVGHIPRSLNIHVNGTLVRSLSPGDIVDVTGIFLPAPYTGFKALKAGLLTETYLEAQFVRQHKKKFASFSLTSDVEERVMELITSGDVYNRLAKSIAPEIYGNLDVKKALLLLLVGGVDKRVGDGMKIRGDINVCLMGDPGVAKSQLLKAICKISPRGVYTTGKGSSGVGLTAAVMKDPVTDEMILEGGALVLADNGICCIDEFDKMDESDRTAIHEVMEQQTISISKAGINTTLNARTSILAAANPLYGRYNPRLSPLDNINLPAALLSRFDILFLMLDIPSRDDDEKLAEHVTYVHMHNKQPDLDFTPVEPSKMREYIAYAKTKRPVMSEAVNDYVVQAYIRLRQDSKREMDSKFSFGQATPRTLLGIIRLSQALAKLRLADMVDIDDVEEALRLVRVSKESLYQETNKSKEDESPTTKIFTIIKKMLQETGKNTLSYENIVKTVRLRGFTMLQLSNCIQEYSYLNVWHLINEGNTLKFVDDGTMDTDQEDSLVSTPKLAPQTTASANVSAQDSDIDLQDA

[3] = biological target: T3, Mcm5 (S. cerevisiae, UniProt P29496 1-775); assay: cross-linking
T3 sequence: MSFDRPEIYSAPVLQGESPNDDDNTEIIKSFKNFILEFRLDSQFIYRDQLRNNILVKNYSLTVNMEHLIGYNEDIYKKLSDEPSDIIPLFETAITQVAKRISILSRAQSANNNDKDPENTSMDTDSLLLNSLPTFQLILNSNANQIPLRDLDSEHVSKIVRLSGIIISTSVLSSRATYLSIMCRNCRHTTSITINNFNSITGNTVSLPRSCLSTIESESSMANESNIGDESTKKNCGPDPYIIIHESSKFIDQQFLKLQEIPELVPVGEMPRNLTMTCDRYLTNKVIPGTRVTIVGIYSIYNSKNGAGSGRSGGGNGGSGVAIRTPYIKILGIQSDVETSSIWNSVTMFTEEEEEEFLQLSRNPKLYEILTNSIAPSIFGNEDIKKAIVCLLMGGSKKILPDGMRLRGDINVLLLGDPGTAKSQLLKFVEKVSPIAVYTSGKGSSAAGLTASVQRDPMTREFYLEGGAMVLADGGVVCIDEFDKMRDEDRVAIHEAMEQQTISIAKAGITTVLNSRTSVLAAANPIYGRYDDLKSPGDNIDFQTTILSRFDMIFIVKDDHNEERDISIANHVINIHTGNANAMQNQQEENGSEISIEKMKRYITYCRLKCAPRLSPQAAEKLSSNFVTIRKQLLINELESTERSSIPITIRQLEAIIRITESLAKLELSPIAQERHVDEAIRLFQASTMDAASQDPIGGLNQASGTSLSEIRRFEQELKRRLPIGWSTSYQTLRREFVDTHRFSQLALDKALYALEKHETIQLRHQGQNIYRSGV

[4] = biological target: Mcm3 (S. cerevisiae, UniProt P24279 1-971); assay: cryo-EM structure
[5] = biological target: B2; assay: cross-linking
[6] = biological target: T4, Cdt1 (S. cerevisiae, UniProt P47112 1-604); assay: cross-linking
T4 sequence: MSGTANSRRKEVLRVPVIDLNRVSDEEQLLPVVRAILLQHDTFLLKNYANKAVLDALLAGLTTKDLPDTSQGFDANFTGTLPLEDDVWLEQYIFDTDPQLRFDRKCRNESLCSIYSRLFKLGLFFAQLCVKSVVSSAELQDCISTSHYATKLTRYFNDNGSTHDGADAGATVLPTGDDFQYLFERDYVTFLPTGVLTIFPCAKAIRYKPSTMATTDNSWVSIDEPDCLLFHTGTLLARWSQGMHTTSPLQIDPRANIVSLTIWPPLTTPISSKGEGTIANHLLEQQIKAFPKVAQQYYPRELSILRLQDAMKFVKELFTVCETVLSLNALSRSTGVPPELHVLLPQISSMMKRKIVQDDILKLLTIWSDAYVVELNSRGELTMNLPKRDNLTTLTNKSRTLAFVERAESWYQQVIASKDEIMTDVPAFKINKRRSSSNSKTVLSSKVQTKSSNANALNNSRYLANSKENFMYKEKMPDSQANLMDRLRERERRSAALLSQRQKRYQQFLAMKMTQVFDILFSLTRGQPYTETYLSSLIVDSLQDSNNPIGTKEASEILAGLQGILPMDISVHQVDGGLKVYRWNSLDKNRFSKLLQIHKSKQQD

Sequence of Mcm3 (P24279 whole entry): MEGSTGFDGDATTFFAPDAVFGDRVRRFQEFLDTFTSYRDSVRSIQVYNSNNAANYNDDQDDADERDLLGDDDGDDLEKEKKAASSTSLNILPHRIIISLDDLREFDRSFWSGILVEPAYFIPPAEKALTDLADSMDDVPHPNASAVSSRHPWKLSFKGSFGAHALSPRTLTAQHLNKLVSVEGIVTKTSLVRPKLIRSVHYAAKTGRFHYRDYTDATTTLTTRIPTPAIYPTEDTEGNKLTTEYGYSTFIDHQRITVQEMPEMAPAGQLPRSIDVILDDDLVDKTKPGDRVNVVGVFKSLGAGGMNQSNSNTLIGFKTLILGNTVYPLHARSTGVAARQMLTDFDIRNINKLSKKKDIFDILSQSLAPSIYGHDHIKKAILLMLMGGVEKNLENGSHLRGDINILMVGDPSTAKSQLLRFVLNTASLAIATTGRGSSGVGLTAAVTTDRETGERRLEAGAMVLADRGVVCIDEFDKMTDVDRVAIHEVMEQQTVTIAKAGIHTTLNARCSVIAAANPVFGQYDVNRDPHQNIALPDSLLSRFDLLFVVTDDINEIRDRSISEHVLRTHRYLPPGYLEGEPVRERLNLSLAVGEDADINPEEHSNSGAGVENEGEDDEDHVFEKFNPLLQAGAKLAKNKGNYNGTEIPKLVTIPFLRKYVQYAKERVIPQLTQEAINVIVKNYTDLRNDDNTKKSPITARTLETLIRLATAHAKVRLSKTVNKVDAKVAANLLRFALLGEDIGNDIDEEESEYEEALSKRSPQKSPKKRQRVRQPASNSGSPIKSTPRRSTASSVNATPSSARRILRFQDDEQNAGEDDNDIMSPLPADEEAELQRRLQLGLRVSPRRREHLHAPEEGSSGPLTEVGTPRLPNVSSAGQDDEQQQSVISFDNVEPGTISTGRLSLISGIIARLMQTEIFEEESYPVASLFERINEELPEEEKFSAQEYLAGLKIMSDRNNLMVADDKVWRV

B1: Cdc6 (natural protein)
chain: MSAIPITPTKRIRRNLFDDAPATPPRPLKRKKLQFTDVTPESSPEKLQFGSQSIFLRTKALLQKSSELVNLNSSDGALPARTAEYEQVMNFLAKAISEHRSDSLYITGPPGTGKTAQLDMIIRQKFQSLPLSLSTPRSKDVLRHTNPNLQNLSWFELPDGRLESVAVTSINCISLGEPSSIFQKIFDSFQDLNGPTLQIKNMQHLQKFLEPYHKKTTFVVVLDEMDRLLHANTSETQSVRTILELFLLAKLPTVSFVLIGMANSLDMKDRFLSRLNLDRGLLPQTIVFQPYTAEQMYEIVIQKMSSLPTIIFQPMAIKFAAKKCAGNTGDLRKLFDVLRGSIEIYELEKRFLLSPTRGSLNSAQVPLTPTTSPVKKSYPEPQGKIGLNYIAKVFSKFVNNNSTRTRIAKLNIQQKLILCTIIQSLKLNSDATIDESFDHYIKAITKTDTLAPLQRNEFLEICTILETCGLVSIKKTKCKGKTKRFVDKIDVDLDMREFYDEMTKISILKPFLH
binding result [1]: binds | binding result [2]: binds

B2
binding result [3]: binds | binding result [4]: binds

B3: Orc6 (natural protein)
chain: MSMQQVQHCVAEVLRLDPQEKPDWSSGYLKKLTNATSILYNTSLNKVMLKQDEEVARCHICAYIASQKMNEKHMPDLCYYIDSIPLEPKKAKHLMNLFRQSLSNSSPMKQFAWTPSPKKNKRSPVKNGGRFTSSDPKELRNQLFGTPTKVRKSQNNDSFVIPELPPMQTNESPSITRRKLAFEEDEDEDEEEPGNDGLSLKSHSNKSITGTRNVDSDEYENHESDPTSEEEPLGVQESRSGRTKQNKAVGKPQSELKTAKALRKRGRIPNSLLVKKYCKMTTEEIIRLCNDFELPREVAYKIVDEYNINASRLVCPWQLVCGLVLNCTFIVFNERRRKDPRIDHFIVSKMCSLMLTSKVDDVIECVKLVKELIIGEKWFRDLQIRYDDFDGIRYDEIIFRKLGSMLQTTNILVTDDQYNIWKKRIEMDLALTEPL
binding result [5]: binds | binding result [6]: binds
